# Changes are numbered by the printed parent chain.
# B1: S5H3B6 (antibody, mouse IgM, V domains shown)
# VH: EVKLVESGGGLVQPGGSLKLSCAASGFTFSDYGMAWVRQAPRKGPEWVAFISNLAYSIYYADTVTGRFTISRENAKNTLYLEMSSLRSEDTAMYYCARLGYGNSFAYWGQGTLVTVSA
# VL: DIVMTQSPSSLTVTAGEKVTMSCKSSQSLLNSGNQKNYLTWYQQKPGQPPKLLIYWASTRESGVPDRFTGSGSGTDFTLTISSVQAEDLAVYYCQNDYSYPLTFGAGTKLELK
# notes: Hybridoma supernatant antibody; murine IgM, kappa; also called subclone S5H3B6
# B2: C58B11E11 (antibody, mouse IgG2c, V domains shown)
# VH: EVQLQQSGPELVKPGASVKMSCKASGYTFTDYNMHWVKQSHGKSLEWIGYINPNNGGTSYNQKFKGKATLTVNKSSSTAYMELRSLTSEDSAVYYCARIYYGNSFAYWGQGTLVTVSA
# VL: B1 VL with L102F, A106S, L112I
# notes: Hybridoma supernatant antibody; murine IgG2c, kappa; also called subclone C58B11E11
# B3: 19CHI (antibody, V domains shown)
# VH: QVQLQQSGAELVKPGASVKMSCKASGYTFTTYPIEWMKQNHGKSLEWIGNFHPYNDDTKYNEKFKGKATLTVEKSSSTVYLELSRLTSDDSAVYYCARRGYGSSYAMDYWGQGTSVTVSS
# VL: B1 VL with T12S, T14S, T40A, W56G, Y98H, L102Y, A106G, L112I
# notes: Human-murine chimeric antibody with the constant region of human IgG1; also called chimeric antibody of C42B12D10
# B4: 17CHI (antibody, V domains shown)
# VH: B2 VH
# VL: B1 VL with L102F, A106S, L112I
# notes: Human-murine chimeric antibody with the constant region of human IgG1; also called chimeric antibody of C58B11E11
# B5: 18CHI (antibody, V domains shown)
# VH: QVQLKESGPGLVAPSQSLSITCTVSGFSLTSYGVSWVRQPPGKGLEWLGVIWGDGSTNYHSALISRLSISKDNSKSQVFLKLNSLQTDDTATYYCAGGLRLWFAYWGQGTLVTVSA
# VL: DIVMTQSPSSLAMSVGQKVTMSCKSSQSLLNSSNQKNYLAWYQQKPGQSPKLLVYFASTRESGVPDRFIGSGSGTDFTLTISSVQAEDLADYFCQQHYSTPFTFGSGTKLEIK
# notes: Human-murine chimeric antibody with the constant region of human IgG1; also called chimeric antibody of C40B10D9
# B6: C40B10D9 (antibody, mouse IgM, V domains shown)
# VH: B5 VH
# VL: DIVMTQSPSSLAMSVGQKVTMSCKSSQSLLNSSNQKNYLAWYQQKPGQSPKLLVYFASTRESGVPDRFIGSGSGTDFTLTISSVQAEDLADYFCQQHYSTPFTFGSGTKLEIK
# notes: Hybridoma supernatant antibody; murine IgM, kappa; also called subclone C40B10D9
# B7: S6H9B8 (antibody, mouse IgG3, V domains shown)
# VH: QVQLQQSGAELARPGASVKLSCKASGYTFTSYGISWVKQRTGQGLEWIGEIYPRSGNTYYNEKFKGKATLTADKSSSTAYMELRSLTSEDSAVYFCASLAWFAYWGQGTLVTVSA
# VL: DIVMTQAAPSVPVTPGESVSISCRSSKSLLHSNGNTYLYWFLQRPGQSPQLLIYRMSNLASGVPDRFSGSGSGTAFTLRISRVEAEDVGVYYCMQHLEYPYTFGGGTKLEIK
# notes: Hybridoma supernatant antibody; murine IgG3, kappa; also called subclone S6H9B8
# B8: 1CHI (antibody, V domains shown)
# VH: QIQLVQSGPELKKPGETVKISCKASGYTFTNYGMNWVKQAPGKGLKWMGWINTYTGEPTYADDFKGRFAFSLETSASTAYLQINNLKNEDMATYFCARDGQLGLRFAYWGQGTLVTVSA
# VL: NIMMTQSPSSLAVSAGEKVTMSCKSSQSVLYSSNQKNYLAWYQQKPGQSPKLLIYWASTRESGVPDRFTGSGSGTDFTLTISSVQAEDLAVYYCHQYLSSRTFGGGTKLEIK
# notes: Human-murine chimeric antibody with the constant region of human IgG1; also called chimeric antibody of B4B10G3
# B9: B4B10G3 (antibody, V domains shown)
# VH: B8 VH
# VL: B8 VL
# notes: Hybridoma supernatant antibody; murine IgG2b, kappa; also called subclone B4B10G3
# B10: Hu330-3 (antibody, V domains shown)
# VH: EVQLLESGGGLVQPGGSLRLSCAASGFGFSDYGMAWVRQAPGKGLEWVSFISNSAYSIYYADTVTGRFTISRDNSKNTLYLQMNSLRAEDTAVYYCARLGRGNSFAYWGQGTLVTVSS
# VL: DIVMTQSPDSLAVSLGERATINCKSSQSLLNSGNQKNYLTWYQQKPGQPPKLLIYWGSTRESGVPDRFSGSGSGTDFTLTISSLQAEDVAVYYCQNELFYPLTFGQGTKLEIK
# notes: Humanized full antibody; also called humanized antibody Hu330-3
# B11: Hu330-5 (antibody, V domains shown)
# VH: B10 VH with L5V, S75A, T78S
# VL: DIVMTQSPLSLPVTLGQPASISCKSSQSLLNSGNQKNYLTWYQQRPGQSPRLLIYWGSTRESGVPDRFSGSGSGTDFTLKISRVEAEDVGVYYCQNELFYPLTFGQGTKLEIK
# notes: Humanized full antibody; also called humanized antibody Hu330-5
# B12: Hu330-6 (antibody, V domains shown)
# VH: B10 VH
# VL: B11 VL
# notes: Humanized full antibody; also called humanized antibody Hu330-6
# What was measured:
# [1] = target: T1, human Claudin18.1 (CLDN18.1), full length, on cells (human, UniProt P56856 1-261); assay: cellular ELISA, hybridoma supernatant on fixed HEK293-CLDN18.1 cells
# T1 construct: HEK293-CLDN18.1 cells carry a fusion with green fluorescent protein (ZsGreen); CHO-K1-CLDN18.1 cells carry pcDNA3.1-CLDN18.1; The cell line is named under assay; also called CLDN18.1-FL; HEK293-CLDN18.1 cells
# Protocol: (§1) HEK293-CLDN18.1 and HEK293-CLDN18.2 cells were cultured separately with DMEM complete culture medium containing 10% fetal bovine serum at 37° C., 5% CO₂. When the cells grew to 80%-90% confluency, they were digested with 0.5 mM EDTA-PBS non-trypsin digestion solution at room temperature, and centrifuged at 1000 rpm for 5 minutes, the supernatant was discarded. Resuspended in DMEM complete culture medium, and the cell concentration was adjusted to 6×10⁵ cells/ml. Cells were plated on 96-well cell plates (Corning) pre-coated with polylysine, 100 μl per well, incubated at 37° C., 5% CO₂ for 24 hours, making cells evenly and completely plated on the bottom of the well. The culture supernatant was aspirated, and the cells were fixed with 4% paraformaldehyde at room temperature for 20 minutes, washed 3 times with 200 μl PBS, 2 minutes at each time. The well plates were blocked with 200 μl of 3% BSA-PBS at 37° C. for 1 hour. […] of subclone culture supernatant was taken and added into the well plate, incubated at 37° C. for 1 hour, washed 5 times with PBS. Incubation with HRP-anti mouse IgG+IgM (Jackson) diluted 1:10000 in blocking solution was performed at 37° C. for 1 hour followed by washing 5 times with PBS. 100 μl of TMB one-component color developing solution was added, protected from light at room temperature for 5-10 minutes, terminated with 2M sulfuric acid, and OD450 was read on the microplate reader. The results are shown in Table 3, subclones of which the hybridoma culture supernatant show strong positive binding to CLDN18.2 (that is, the OD value is 50% higher than the OD value of the positive control) include: S3F10C5, S5H3A6, S5H3B6, S5H3D6, S6F10E7, S6H9B8, S6H9C8, C40B10D9, C42B12D10 and C58B11E11. Among these subclones, S5H3A6, S5H3B6, S5H3D6, C40B10D9, C42B12D10 and C58B11E11 show negative binding to CLDN18.1 cells.
# [2] = target: T2, human Claudin18.2 (CLDN18.2), full length, on cells (human); assay: cellular ELISA, hybridoma supernatant on fixed HEK293-CLDN18.2 cells
# T2 construct: also called CLDN18.2-FL; HEK293-CLDN18.2 cells
# Protocol: as §1
# [3] = target: T2, human Claudin18.2 (CLDN18.2), full …; assay: cellular ELISA on fixed HEK293-CLDN18.2 cells
# Protocol: (§2) HEK293-CLDN18.1 and HEK293-CLDN18.2 cells were resuscitated two weeks in advance, cultured with DMEM complete culture medium containing 10% fetal bovine serum at 37° C., 5% CO₂. When the cells grew to 80%-90% confluency, they were digested with 0.5 mM EDTA-PBS (Sigma) at room temperature, centrifuged at 1000 rpm for 5 minutes, the supernatant was discarded. Cells were resuspended in DMEM complete culture medium, the cell concentration was adjusted to 6×10⁵ cells/ml. Cells were plated on 96-well cell plates (Corning) pre-coated with polylysine at 2.5 μg/well, 100 μl per well, incubated at 37° C., 5% CO₂ for 24 hours, making cells evenly and completely plated on the bottom of the well. The supernatant was aspirated, and the cells were fixed with 4% paraformaldehyde at room temperature for 20 minutes, washed 3 times with 200 μl PBS, 2 minutes at each time. The well plates were blocked with 200 μl of 3% BSA-PBS at 37° C. for 1 hour. Each chimeric antibody was diluted with 3% BSA-PBS to a concentration of 6 μg/ml, and diluted in a 6-fold gradient to a total of 7 concentrations. At the same time, IMAB362-similar-hG1 diluted in the same concentration gradient as the positive control, and human IgG1, kappa isotype control antibody (hereinafter referred to as Isotype, provided by CrownBio (Taicang) Co., Ltd.) as the negative control were added to HEK293-CLDN18.2 and HEK293-CLDN18.1 cell plates, respectively. The cells were incubated at 37° C. for 1 hour, washed 5 times with PBS. Incubation with HRP-anti human IgG (Jackson) diluted 1:10000 in blocking solution was performed at 37° C. for 1 hour followed by washing 5 times with PBS. 100 μl of TMB one-component color developing solution was added, protected from light at room temperature for 5-10 minutes, terminated with 50 μl of 2M sulfuric acid, OD450 was read on the microplate reader. Data processing: the original data was put into GraphPad 5.0 software for plotting and calculation.
# [4] = target: T1, human Claudin18.1 (CLDN18.1), full …; assay: FACS on CHO-K1-CLDN18.1 cells
# From the text: Human gastric cancer cells NUGC4 and stably transfected cells CHO-K1-CLDN18.1 (prepared in Example 5) were used respectively, to verify the specificity and affinity of the anti-CLDN18.2 antibodies above at the cellular level by FAGS technology. After antibody affinity maturation and screening in vitro, each antibody can bind to the CLDN18.2 target on NUGC4 cells, but not to CHO-K1-CLDN18.1 cells, as compared with the original 3CHI antibody.
# [5] = target: T1, human Claudin18.1 (CLDN18.1), full …; assay: cellular ELISA on fixed HEK293-CLDN18.1 cells, HRP-anti human IgG, OD450
# Protocol: as §2
# [6] = target: T2, human Claudin18.2 (CLDN18.2), full …; assay: FACS on CHO-K1-CLDN18.2 cells, PE-anti human Fc, MFI
# Protocol: (§3) CHO-K1-CLDN18.2 cells and CHO-K1-CLDN18.1 cells (prepared in Example 5) were digested with gastric cancer cell digestion solution at 37° C. for 15 minutes, respectively; terminated with complete culture medium, centrifuged at 1000 rpm for 5 minutes, the supernatant was discarded; the cells were resuspended with 2% fetal bovine serum-PBS diluent, the cells were adjusted to 1×10⁶ cells/ml, 100 μl of cell suspension was added to each well of the 96-well U-shaped-bottom plate; 2% fetal bovine serum-PBS was used to dilute the humanized antibody and the control antibody to final concentrations of 10 μg/ml, 2 μg/ml, 0.4 μg/ml, 0.08 μg/ml and 0.016 μg/ml, respectively, mixed well with the cells in equal volume, incubated at 4° C. for 1 hour; centrifuged at 1000 rpm for 5 minutes, the supernatant was discarded; 200 μl Cell Stain Buffer (Biolegend) was added to each well to wash twice, centrifuged at 1000 rpm for 5 minutes at each time and the supernatant was discarded; 100 μl of PE-anti human Fc antibody (Biolegend) was added, incubated at 4° C. for 1 hour; washed with Cell Stain Buffer (Biolegend) twice, centrifuged at 1000 rpm for 5 minutes at each time and the supernatant was discarded. 300 μl Cell Stain Buffer was added to resuspend the cells, and detected by BD FACS Jazz flow cytometry analyzer.
# [7] = target: T1, human Claudin18.1 (CLDN18.1), full …; assay: FACS on CHO-K1-CLDN18.1 cells, PE-anti human Fc, MFI
# Protocol: as §3
Binder,OD450 [1] [OD],OD450 [2] [OD],EC50 [3] [nM],also measured
B1,0.152,1.38,–,binding result [1]: no binding
B2,–,0.671,–,–
B3,–,–,29.9,–
B4,–,–,2.44,MFI (CLDN18.1) [4]: 14500 MFI
B5,–,–,1.75,binding result [5]: no binding (tested: 6000 ng/ml)
B6,0.114,0.664,–,binding result [1]: no binding
B7,1.5,2.35,–,–
B8,–,–,0.55,binding result [5]: no binding (tested: 6000 ng/ml)
B9,0.2,0.343,–,–
B10,–,–,–,binding result [6]: binds; binding result [7]: no binding
B11,–,–,–,EC50 (read off the curve) [6]: ~0.2 µg/mL; binding result [7]: no binding
B12,–,–,–,EC50 (read off the curve) [6]: ~0.2 µg/mL; binding result [7]: no binding

# From patent US20220119517A1 (NANJING SANHOME PHARMACEUTICAL, published 2022)
